The data set concerns MS2 coat protein. In words: apparent KD of MS2 coat protein; designed switch direction (-1 OFF switch, 1 ON switch): -1; higher = weaker reporter binding. The essentials:
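Three titration conditions were used: no input, 200 uM small-molecule ligand, and an oligonucleotide input. In each, SNAP-549-labelled MS2 coat protein was raised from 0.7 or 1.5 nM, doubling, to 3 µM over designed RNA switches transcribed on Illumina chips by stalled E. coli RNA polymerase. Curve fits of normalised cluster fluorescence gave values whose per-design median over clusters is the apparent KD.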

[1] abbreviates: Eterna round: R95, input ligand: microRNA oligo, concentration not stated.
Where [2] appears, read: Eterna round: R95, input ligand: FMN 200 uM.
[3] abbreviates: Eterna round: R95, input ligand: none.
[4] abbreviates: input ligand: microRNA oligo, concentration not stated.

The text below walks through data of the supplement of paper PMC9170038.

Regarding “GGUGCGUAUGUGAGGAUAUGCUGGUCCUUGGAUCGGCAGAAGGCACAUGAGGAUCACCCAUGUGGUGUCGUUCC [salish99_Bmod_ex4_100] (puzzle: Brourd's mod of Exclusion 4)”, under setting [1], the “apparent KD of MS2 coat protein” value came to 114 nM.

“GGUGCGUUUGUGAGGAUAUGCUGGUCCUUGGUUCGGCAGAAGGCACAUGAGGAUCACCCAUGUGGUGUCGUGCC [salish99_Bmod_Ex4_045] (puzzle: Brourd's mod of Exclusion 4)”: the “apparent KD of MS2 coat protein” value under setting [1] stood at 33.1 nM.

As to “GGUGCGUUUGUGAGGAUAUGCUGGUCCUUGGUUCGGCAGAAGGCACAUGAGGAUCACCCAUGUGGUGUCGUUCC [salish99_Bmod_Ex4_047] (puzzle: Brourd's mod of Exclusion 4)”, the “apparent KD of MS2 coat protein” value under setting [1] came to 13.9 nM.

With “GGUGGACAUGAGGAUCACCCAUGUGAGGAUAUCGGCCGGCUAGUGGUGGCUGGCUUCUCGAGAAGGCGCAUAGU [Exclusion 1 V76] (puzzle: Exclusion 1)”, the “apparent KD of MS2 coat protein” value under setting [1] was found to be 46.8 nM.

Take “GGUGGACAUGAGGAUCACCCAUGUGAGGAUAUCGGCCGGUUCGUGGUGGCUGGCGUCUCGAGAAGGCACAUAGU [Exclusion 1 V69] (puzzle: Exclusion 1)”: under setting [1], the “apparent KD of MS2 coat protein” value is 114 nM.

As to “GGUGGACAUGAGGAUCACCCAUGUGAGGAUAUCGGCUAUCUUAUCGCUGUCGGUUGCUCGAGAAGGCACAUUGU [Exclusion 1 V96] (puzzle: Exclusion 1)”, the “apparent KD of MS2 coat protein” value under setting [1] was found to be 71.2 nM.

For “GGUGGACAUGAGGAUCACCCAUGUGAGGAUAUCGGCUGGCUAGCGGCUGACGGCUGCUCGAGAAGGCGCAUUGU [Exclusion 1 V85] (puzzle: Exclusion 1)”, under setting [1], the “apparent KD of MS2 coat protein” value was 50.5 nM.

Consider “GGUUGGCGAGGAUAUACAUGAGGAUCACCCAUGUGAGAAUAAAAAGUGAGGAAGAAAAGUAGAAGGCGCUGACG [Mat - Exclusion 3 - Mod of Salish D5] (puzzle: Exclusion 3)”, for which the “apparent KD of MS2 coat protein” value is, setting by setting: under setting [2], 76.5 nM; under setting [1], 31.6 nM; under setting [3], 36.3 nM.

Turning to “GGUUGGCGAGGAUAUACAUGAGGAUCACCCAUGUGAGAGAAAAAAGUGAGAACGAAAAGUAGAAGGCGCUGACG [salish99-ex3-25] (Eterna round: R96, puzzle: Exclusion 3)”, the “apparent KD of MS2 coat protein” value turned out to be 315 nM (input ligand: FMN 200 uM), 67.5 nM under setting [4] and 98.8 nM (input ligand: none).

For the sequence “GGUUGGCGAGGAUAUACAUGAGGAUCACCCAUGUGAGAGAAAAAAGUGAGAACGAAAAGUAGAAGGCGCUGACG [salish99_ex3_r3_057] (puzzle: Exclusion 3)”, the “apparent KD of MS2 coat protein” value is, setting by setting: under setting [2], 272 nM; under setting [1], 122 nM; under setting [3], 76.9 nM.

For the sequence “GGUUGGCGAGGAUAUACAUGAGGAUCACCCAUGUGAGAGAAAAUAGUGAGGAAGAAAAGUAGAAGGCGCUGACG [salish99_ex3_r3_014] (puzzle: Exclusion 3)”, the “apparent KD of MS2 coat protein” value under setting [2] was found to be 98.1 nM, the “apparent KD of MS2 coat protein” value under setting [1] is 47.7 nM and the “apparent KD of MS2 coat protein” value under setting [3] turned out to be 37.5 nM.

Consider “GGUUGGCGAGGAUAUACAUGAGGAUCACCCAUGUGGUCCUGUGGAAAAAAAAACCUUUGUAGAAGGCGCGGGUC [salish99_ex3_r4_032] (Eterna round: R97, puzzle: Exclusion 3)”, for which the “apparent KD of MS2 coat protein” value runs as follows: (input ligand: FMN 200 uM) 415 nM; (input ligand: none) 534 nM.

Consider “GUAAAGUGAGGAUAUGGUAAAUUAAUUAUUUAUUAAUUAAUCCAGAAGGCACAUGAGGAUCACCCAUGUAAAUG [Mat - Exclusion 4 - D94] (puzzle: Exclusion 4)”, for which the “apparent KD of MS2 coat protein” value under setting [1] stood at 26.5 nM.

In the case of “GUAACAUGCUGGUGAUCAUACAUGAGGAUCACCCAUGUAACAAGCUUUUUGUUCGUCUUAUAAGAUUACUAGUAUGU [Stov1/10-B2] (Eterna round: R97, puzzle: Sensor, turn-off variant 1)”, the “apparent KD of MS2 coat protein” value is, setting by setting: (input ligand: FMN 200 uM) 33 nM; (input ligand: none) 39.7 nM.

Consider “GUAACAUGCUGGUGAUCAUACAUGAGGAUCACCCAUGUAACAAGCUUUUUGUUCGUCUUAUAAUUUAAGAUCACCAG [Stov1/7-B3] (Eterna round: R97, puzzle: Sensor, turn-off variant 1)”, for which the “apparent KD of MS2 coat protein” value reads like this: (input ligand: FMN 200 uM) 19.8 nM; (input ligand: none) 21.8 nM.

With “GUAAUUAAUGUAGGAUAUGCAAGGCGAACCUAAGCAGAAGGACAUGAGGAUCACCCAUGUAUUGCGGUCUGCGUUCAGAUCGCU [salish99_ExNG1_r4_009] (Eterna round: R96, puzzle: Exclusion NG 1)”, under setting [4], the “apparent KD of MS2 coat protein” value came out at 15.4 nM.

As to “GUACAACAUGAGGAUCACCCAUGUGAGGAUAUGCGAAUUUCAUCAAAAGAUGAAAUUUGCAGAAGGCACAGUAC [Omei Ex1 A8] (Eterna round: R97, puzzle: Exclusion 1)”, the “apparent KD of MS2 coat protein” value runs as follows: (input ligand: FMN 200 uM) 26.6 nM; (input ligand: none) 32.8 nM.

Consider “GUACCAAUUGUAGGAUAUGGAUCCGAUUAGGAUCCAGAAGGACAUGAGGAUCACCCAUGUACAUGAGGAUCACCCAUUAGGUAC [Fiskers ExNg1 - 12] (Eterna round: R96, puzzle: Exclusion NG 1)”, for which the “apparent KD of MS2 coat protein” value runs as follows: (input ligand: FMN 200 uM) 53.2 nM; under setting [4], 30.9 nM; (input ligand: none) 46.1 nM.

For the sequence “GUACUAGAAUAUCAGUCGCACAUGAGGAUCACCCAUGUCAUGGGUAGAUAAAUAAAUAAAGAUACUGCUCGUCUUAU [Cac sensor turnoff var1 sub1] (Eterna round: R97, puzzle: Sensor, turn-off variant 1)”, the “apparent KD of MS2 coat protein” value (input ligand: FMN 200 uM) turned out to be 277 nM and the “apparent KD of MS2 coat protein” value (input ligand: none) worked out at 399 nM.

“GUACUGACAGGAUAUACAUGAGGAUCACCCAUGUCCUUAUGCUGACAAAAGUCAGCAAGUAGAAGGGUCUGUAC [Omei Ex3 Model Bachelor's Dilema v2] (Eterna round: R97, puzzle: Exclusion 3)”: the “apparent KD of MS2 coat protein” value turned out to be 1270 nM (input ligand: FMN 200 uM) and 88.4 nM (input ligand: none).

In the case of “GUACUGACAGGAUAUACAUGAGGAUCACCCAUGUGCCUUAUCGCUACAAAAGUAGCGGGUAGAAGGGUCUGUAC [Omei Ex3 Model Bachelor's Dilema v19] (Eterna round: R97, puzzle: Exclusion 3)”, the “apparent KD of MS2 coat protein” value amounted to 41.8 nM (input ligand: FMN 200 uM) and 16.4 nM (input ligand: none).

Take “GUAGAGUAAGGAUAUACAGAAUAGGAUAGAAUGGUUAGAAUGUAGAAGGUACAUGAGGAUCACCCAUGUAAUGU [Excluse me!!!! 8 - Jieux - Exclusion 4] (puzzle: Exclusion 4)”: the “apparent KD of MS2 coat protein” value under setting [1] is 19.7 nM.

Turning to “GUAGAGUAAGGAUAUCAAGAAUAGGAUAGAAUGGUUAGAAUUGAGAAGGUACAUGAGGAUCACCCAUGUAAUGU [Excluse me!!!! 4 - Jieux - Exclusion 4] (puzzle: Exclusion 4)”, the “apparent KD of MS2 coat protein” value under setting [1] is 24.1 nM.

“GUAGAGUAAGGAUAUGGUGAAUAGGAUAGAAUGGUUAGAAAUCAGAAGGUACAUGAGGAUCACCCAUGUAAUGU [Excluse me!!!! 15 - Jieux - Exclusion 4] (puzzle: Exclusion 4)”: the “apparent KD of MS2 coat protein” value under setting [1] was 21 nM.

On to “GUAGAGUCAGGAUAUACGAGAUCGAAAGAUCAGUGAUCCUUACAUGAGGAUCACCCAUGUAGAAGGGACUCUAC [Omei mod 8 to Eli's favorate candidate (ch.parushev)] (Eterna round: R97, puzzle: Exclusion 2)”, for which the “apparent KD of MS2 coat protein” value came to 41.9 nM (input ligand: FMN 200 uM) and 388 nM (input ligand: none).
